Literature values as cited in US20230250195A1, “Methods for Reducing Infusion-Related Reactions in Patients Treated with EGFR/Met Bispecific Antibodies” (Janssen Biotech, Inc., priority 2022, published 2023).

Conditions: 302 patients with locally advanced or metastatic NSCLC; IV amivantamab at recommended Phase 2 dose (RP2D) as a single agent

Substance: amivantamab: IgG1 anti-EGFR/c-Met bispecific antibody described in U.S. Pat. No. 9,593,164
- incidence of infusion-related reactions (IRRs): 66%
